{"source": "the RNAGym collection of RNA variant scans (doi:10.1021/acssynbio.7b00057)", "parents": {"B1": {"name": "Pistol ribozyme (parent)", "chain": "GGGUCGUUGUUCCAUAAUCGCGUGGAUAUGGCACGCAAGUUUCUACCGGGCACCGUAAAUGUCCGACUGGAGCCGUUCGGGCGGCUAUAAACAGACCUCAGGCCCGAAGCGUGGCGGCACCUGCCGCCGGUGGUAAAAAAGAUCGGAAGAGCACACGUCU"}}, "data": [{"variants_of": "B1", "experiment": "aptazyme ON/OFF ratio, guanine; higher = stronger switching; co-transcriptional cleavage with and without guanine", "values": [{"variant": "GGGUCGUGAAUCGAUAAUCGCGUGGAUAUGGCACGCAAGUUUCUACCGGGCACCGUAAAUGUCCGACUGGAGCCGUUCGGGCGGCUAUAAACAGACCUCAGGCCCGAAGCGUGGCGGCACCUGCCGCCGGUGGUAAAAAAGAUCGGAAGAGCACACGUCU", "note": "[U8G G9A U10A C13G]", "aptazyme ON/OFF ratio": 1.08}, {"variant": "GGGUCGACCUUAGAUAAUCGCGUGGAUAUGGCACGCAAGUUUCUACCGGGCACCGUAAAUGUCCGACUGGAGCCGUUCGGGCGGCUAUAAACAGACCUCAGGCCCGAAGCGUGGCGGCACCUGCCGCCGGUGGUAAAAAAGAUCGGAAGAGCACACGUCU", "note": "[U7A U8C G9C C12A C13G]", "aptazyme ON/OFF ratio": 1.14}, {"variant": "GGGUCGAGAGAUUAUAAUCGCGUGGAUAUGGCACGCAAGUUUCUACCGGGCACCGUAAAUGUCCGACUGGAGCCGUUCGGGCGGCUAUAAACAGACCUCAGGCCCGAAGCGUGGCGGCACCUGCCGCCGGUGGUAAAAAAGAUCGGAAGAGCACACGUCU", "note": "[U7A U8G G9A U10G U11A C12U C13U]", "aptazyme ON/OFF ratio": 1.27}, {"variant": "GGGUCGGUAGGCCAUAAUCGCGUGGAUAUGGCACGCAAGUUUCUACCGGGCACCGUAAAUGUCCGACUGGAGCCGUUCGGGCGGCUAUAAACAGACCUCAGGCCCGAAGCGUGGCGGCACCUGCCGCCGGUGGUAAAAAAGAUCGGAAGAGCACACGUCU", "note": "[U7G G9A U10G U11G]", "aptazyme ON/OFF ratio": 1.09}, {"variant": "GGGUCGUCGGACCAUAAUCGCGUGGAUAUGGCACGCAAGUUUCUACCGGGCACCGUAAAUGUCCGACUGGAGCCGUUCGGGCGGCUAUAAACAGACCUCAGGCCCGAAGCGUGGCGGCACCUGCCGCCGGUGGUAAAAAAGAUCGGAAGAGCACACGUCU", "note": "[U8C U10G U11A]", "aptazyme ON/OFF ratio": 1.07}, {"variant": "GGGUCGUGAUCCUAUAAUCGCGUGGAUAUGGCACGCAAGUUUCUACCGGGCACCGUAAAUGUCCGACUGGAGCCGUUCGGGCGGCUAUAAACAGACCUCAGGCCCGAAGCGUGGCGGCACCUGCCGCCGGUGGUAAAAAAGAUCGGAAGAGCACACGUCU", "note": "[U8G G9A U11C C13U]", "aptazyme ON/OFF ratio": 1.06}, {"variant": "GGGUCGGUGCGAAAUAAUCGCGUGGAUAUGGCACGCAAGUUUCUACCGGGCACCGUAAAUGUCCGACUGGAGCCGUUCGGGCGGCUAUAAACAGACCUCAGGCCCGAAGCGUGGCGGCACCUGCCGCCGGUGGUAAAAAAGAUCGGAAGAGCACACGUCU", "note": "[U7G U10C U11G C12A C13A]", "aptazyme ON/OFF ratio": 1.11}, {"variant": "GGGUCGAUCGGAUAUAAUCGCGUGGAUAUGGCACGCAAGUUUCUACCGGGCACCGUAAAUGUCCGACUGGAGCCGUUCGGGCGGCUAUAAACAGACCUCAGGCCCGAAGCGUGGCGGCACCUGCCGCCGGUGGUAAAAAAGAUCGGAAGAGCACACGUCU", "note": "[U7A G9C U10G U11G C12A C13U]", "aptazyme ON/OFF ratio": 1.08}, {"variant": "GGGUCGGAUUGUGAUAAUCGCGUGGAUAUGGCACGCAAGUUUCUACCGGGCACCGUAAAUGUCCGACUGGAGCCGUUCGGGCGGCUAUAAACAGACCUCAGGCCCGAAGCGUGGCGGCACCUGCCGCCGGUGGUAAAAAAGAUCGGAAGAGCACACGUCU", "note": "[U7G U8A G9U U11G C12U C13G]", "aptazyme ON/OFF ratio": 1.04}, {"variant": "GGGUCGUGGUCACAUAAUCGCGUGGAUAUGGCACGCAAGUUUCUACCGGGCACCGUAAAUGUCCGACUGGAGCCGUUCGGGCGGCUAUAAACAGACCUCAGGCCCGAAGCGUGGCGGCACCUGCCGCCGGUGGUAAAAAAGAUCGGAAGAGCACACGUCU", "note": "[U8G U11C C12A]", "aptazyme ON/OFF ratio": 1.13}, {"variant": "GGGUCGCCGUCUAAUAAUCGCGUGGAUAUGGCACGCAAGUUUCUACCGGGCACCGUAAAUGUCCGACUGGAGCCGUUCGGGCGGCUAUAAACAGACCUCAGGCCCGAAGCGUGGCGGCACCUGCCGCCGGUGGUAAAAAAGAUCGGAAGAGCACACGUCU", "note": "[U7C U8C U11C C12U C13A]", "aptazyme ON/OFF ratio": 1.37}, {"variant": "GGGUCGGCUCCUCAUAAUCGCGUGGAUAUGGCACGCAAGUUUCUACCGGGCACCGUAAAUGUCCGACUGGAGCCGUUCGGGCGGCUAUAAACAGACCUCAGGCCCGAAGCGUGGCGGCACCUGCCGCCGGUGGUAAAAAAGAUCGGAAGAGCACACGUCU", "note": "[U7G U8C G9U U10C U11C C12U]", "aptazyme ON/OFF ratio": 1.29}, {"variant": "GGGUCGUAUUUUAAUAAUCGCGUGGAUAUGGCACGCAAGUUUCUACCGGGCACCGUAAAUGUCCGACUGGAGCCGUUCGGGCGGCUAUAAACAGACCUCAGGCCCGAAGCGUGGCGGCACCUGCCGCCGGUGGUAAAAAAGAUCGGAAGAGCACACGUCU", "note": "[U8A G9U C12U C13A]", "aptazyme ON/OFF ratio": 1.36}, {"variant": "GGGUCGUUGACCAAUAAUCGCGUGGAUAUGGCACGCAAGUUUCUACCGGGCACCGUAAAUGUCCGACUGGAGCCGUUCGGGCGGCUAUAAACAGACCUCAGGCCCGAAGCGUGGCGGCACCUGCCGCCGGUGGUAAAAAAGAUCGGAAGAGCACACGUCU", "note": "[U10A U11C C13A]", "aptazyme ON/OFF ratio": 1.02}, {"variant": "GGGUCGUUGGCAAAUAAUCGCGUGGAUAUGGCACGCAAGUUUCUACCGGGCACCGUAAAUGUCCGACUGGAGCCGUUCGGGCGGCUAUAAACAGACCUCAGGCCCGAAGCGUGGCGGCACCUGCCGCCGGUGGUAAAAAAGAUCGGAAGAGCACACGUCU", "note": "[U10G U11C C12A C13A]", "aptazyme ON/OFF ratio": 1.23}, {"variant": "GGGUCGCCGGGCGAUAAUCGCGUGGAUAUGGCACGCAAGUUUCUACCGGGCACCGUAAAUGUCCGACUGGAGCCGUUCGGGCGGCUAUAAACAGACCUCAGGCCCGAAGCGUGGCGGCACCUGCCGCCGGUGGUAAAAAAGAUCGGAAGAGCACACGUCU", "note": "[U7C U8C U10G U11G C13G]", "aptazyme ON/OFF ratio": 1.11}, {"variant": "GGGUCGCAGUACCAUAAUCGCGUGGAUAUGGCACGCAAGUUUCUACCGGGCACCGUAAAUGUCCGACUGGAGCCGUUCGGGCGGCUAUAAACAGACCUCAGGCCCGAAGCGUGGCGGCACCUGCCGCCGGUGGUAAAAAAGAUCGGAAGAGCACACGUCU", "note": "[U7C U8A U11A]", "aptazyme ON/OFF ratio": 1.13}, {"variant": "GGGUCGUUGGCUAAUAAUCGCGUGGAUAUGGCACGCAAGUUUCUACCGGGCACCGUAAAUGUCCGACUGGAGCCGUUCGGGCGGCUAUAAACAGACCUCAGGCCCGAAGCGUGGCGGCACCUGCCGCCGGUGGUAAAAAAGAUCGGAAGAGCACACGUCU", "note": "[U10G U11C C12U C13A]", "aptazyme ON/OFF ratio": 1.2}]}]}
